{"source": "patent US20250011456A1", "about": "“ANTIBODIES AGAINST CD14 AND USES THEREOF” (Villanelle Life Science Inc, priority 2023, published 2025)", "molecules": {"B1": {"name": "IgG4: The IgG4 tested is the original version of Atibuclimab (anti-CD14 antibody) (antibody, V domains shown)", "VH": "DVQLQQSGPGLVKPSQSLSLTCTVTGYSITSDSAWNWIRQFPGNRLEWMGYISYSGSTSYNPSLKSRISITRDTSKNQFFLQLNSVTTEDTATYYCVRGLRFAYWGQGTLVTVSS", "VL": "DIVLTQSPASLAVSLGQRATISCRASESVDSYVNSFLHWYQQKPGQPPKLLIYRASNLQSGIPARFSGSGSRTDFTLTINPVEADDVATYYCQQSNEDPYTFGGGTKLEIK", "modifications": "IgG4 constant regions"}, "B2": {"name": "MPDDAD003: D6DD3D014-derived antibody with PTM site removed; VL amino acid nos. 34, 35: TS (antibody, V domains shown)", "VH": "QLQLQESGPGLVKPSETLSLTCTVSGGSISSDSAWNWIRQPPGKGLEWIGYISYSGSTSYNPSLKSRVTISRDTSKNQFSLKLSSVTAADTAVYYCVRGLRFAYWGQGTLVTVSS", "VL": "DIQLTQSPSSLSASVGDRVTITCRASESVDSYVTSFLHWYQQKPGKAPKLLIYRASNLQSGVPSRFSGSGSRTDFTLTISSLQPEDVATYYCQQSNEDPYTFGQGTKLEIK"}, "B3": {"name": "MPDDAD004: D6DD3D014-derived antibody with PTM site removed; VL amino acid nos. 34, 35: NA (antibody, V domains shown)", "VH": "B2 VH", "VL": "B2 VL with T34N, S35A"}, "B4": {"name": "MPDDAD005: D6DD3D014-derived antibody with PTM site removed; VL amino acid nos. 34, 35: QS (antibody, V domains shown)", "VH": "B2 VH", "VL": "B2 VL with T34Q"}, "B5": {"name": "MPDDAD001: D6DD3D014-derived antibody with PTM site removed; VL amino acid nos. 34, 35: DS (antibody, V domains shown)", "VH": "B2 VH", "VL": "B2 VL with T34D"}, "B6": {"name": "MPDDAD002: D6DD3D014-derived antibody with PTM site removed; VL amino acid nos. 34, 35: SS (antibody, V domains shown)", "VH": "B2 VH", "VL": "B2 VL with T34S"}}, "key": {"[1]": {"system": "CD14 positive recurrent bladder cancer patient-derived xenograft (PDX)", "test": "Anti-CD14 IgG1/IgG4 with or without cisplatin, tumor treatment in PDX mice (tumor length, width, volume, tumor weight; Example 6)", "format": "in vivo", "details": "for Tumor Length / Tumor Volume / Tumor Width: IgG4 5 mg/kg i.v. (Ex. 2), PDX mice 1-6", "excerpt": "After removing the primary tumor tissue from the patient, the tissue was temporarily placed in a complete culture medium containing RPMI1640 (Gibco Roswell Park Memorial Institute 1640 Media)+PS (penicillin and streptomycin)+10% FBS (Fetal bovine serum). The tissue was then transported to a sterile operating room within an SPF-grade (Specific Pathogen Free) animal facility. The tumor tissue was cut to an appropriate size (5 millimeters (mm) in diameter). Severely immunodeficient NSG (NOD scid gamma mouse) mice were anesthetized using an isoflurane respirator. The tumor was transplanted subcutaneously into the right rib area through surgery. When the tumor volume reached 1 cm^3, it was passaged following the same procedure, and after expanding for three generations, the tumor became stable for use in formal experiments. During the experiment, passaging and expansion were performed as needed. When the tumor volume reached 100 mm^3, the mice were divided into groups according to the experimental requirements and treated with drugs.\nThe IgG4 tested is the original version of Atibuclimab.\nDrug administration on the PDX mice was performed intravenously."}, "[2]": {"molecular_target": "T1, human CD14 antigen (B294801, histidine tagged) (Homo sapiens, UniProt P08571)", "T1 construct": "His; purchased Shanghai BaiYing Biotechnology Co., Ltd B294801 (Batch number 20200518A22)", "T1 sequence (P08571 20-345)": "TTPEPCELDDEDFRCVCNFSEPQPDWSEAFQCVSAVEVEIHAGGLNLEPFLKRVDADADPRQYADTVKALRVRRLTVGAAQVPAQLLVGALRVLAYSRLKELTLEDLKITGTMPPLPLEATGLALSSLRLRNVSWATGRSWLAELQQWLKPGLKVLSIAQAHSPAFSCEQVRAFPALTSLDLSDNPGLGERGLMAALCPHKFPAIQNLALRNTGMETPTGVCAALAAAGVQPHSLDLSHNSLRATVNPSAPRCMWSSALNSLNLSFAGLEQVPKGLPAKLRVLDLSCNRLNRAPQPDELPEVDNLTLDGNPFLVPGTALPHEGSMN", "test": "Biacore 8K kinetic and affinity test of antibodies without PTM sites (Example 9)", "format": "binding", "details": "for Koff / kon (1:1 binding): Biacore 8K, analyte B294801 0.1953125-25 nM, capture conc. 1 μg/mL", "procedure": "Experimental reagents and consumables included cell culture fluid, electroporation buffer, CHO cells, 1 mL electroporation cuvette, Protein A chip (Cytiva, 29127556), various sizes of shake flasks, and various sizes of pipettes. Main instruments and equipment included a shaker (Taicang Huamei), centrifuge (Baiyang), ultrapure water system (Millipore), constant temperature incubator (BLUE PARD), electroporator, water bath, Biacore 8K (Cytiva), and ELISA system (Molecular Devices).\nThe antigen used for the binding affinity measurements is B294801. This antigen is a human CD14 antigen that is histidine tagged. D6DD3D001 is a mouse antibody, and MPDDAD001-MPDDAD005 are humanized antibodies. The antibodies are recombinant, human (hFc Tag). Selected parameters of the experimental samples are shown in Table 9-1, with MW referring to molecular weight in kDa.\nThe Biacore 8K platform was used to test the kinetic and affinity properties of the antibody, operating according to system instructions and indications.\nResults of Affinity Detection. The affinity of the six antibodies was measured at saturation concentration. For the experiments, the analyte solution comprises the B294801 antigen with an analyte concentration of 0.1953125 nM, 0.390625 nM, 0.78125 nM, 1.5625 nM, 3.125 nM, 6.25 nM, 12.5 nM, and 25 nM. Change factor is described above."}}, "note": "Changes are numbered by the printed parent chain. Several values for one entry are separate records, joined by “and”; a condition that tells them apart may be missing. Equal entries are not always repeated."}
{"molecule": "B1", "values": [{"measurement": "Tumor Length", "setting": "[1]; Day 0, 5 mg/kg", "value": "6.27 mm and 8.76 mm and 6.59 mm and 7.42 mm and 6.33 mm and 6.02 mm"}, {"measurement": "Tumor Volume", "setting": "[1]; Day 0, 5 mg/kg", "value": "71.87 mm^3 and 99.55 mm^3 and 90.05 mm^3 and 93.23 mm^3 and 102.04 mm^3 and 77.19 mm^3"}, {"measurement": "Tumor Width", "setting": "[1]; Day 0, 5 mg/kg", "value": "4.68 mm and 4.66 mm and 5.11 mm and 4.9 mm and 5.55 mm and 4.95 mm"}, {"measurement": "Tumor Length", "setting": "[1]; Day 4, 5 mg/kg", "value": "6.09 mm and 6.4 mm and 7.29 mm and 6.97 mm and 6.34 mm and 6.38 mm"}, {"measurement": "Tumor Volume", "setting": "[1]; Day 4, 5 mg/kg", "value": "113.97 mm^3 and 113.45 mm^3 and 97.29 mm^3 and 124.83 mm^3 and 104.42 mm^3 and 77.89 mm^3"}, {"measurement": "Tumor Width", "setting": "[1]; Day 4, 5 mg/kg", "value": "5.98 mm and 5.82 mm and 5.05 mm and 5.85 mm and 5.61 mm and 4.83 mm"}, {"measurement": "Tumor Length", "setting": "[1]; Day 7, 5 mg/kg", "value": "7.28 mm and 7.86 mm and 8.67 mm and 6.99 mm and 8.27 mm"}, {"measurement": "Tumor Volume", "setting": "[1]; Day 7, 5 mg/kg", "value": "180.86 mm^3 and 117.78 mm^3 and 198.12 mm^3 and 140.77 mm^3 and 173.66 mm^3 and 136.21 mm^3"}, {"measurement": "Tumor Width", "setting": "[1]; Day 7, 5 mg/kg", "value": "6.89 mm and 5.56 mm and 6.94 mm and 5.57 mm and 5.61 mm"}, {"measurement": "Tumor Length", "setting": "[1]; Day 11, 5 mg/kg", "value": "8.11 mm and 8.29 mm and 6.98 mm and 8.22 mm and 7.53 mm and 8.23 mm"}, {"measurement": "Tumor Width", "setting": "[1]; Day 11, 5 mg/kg", "value": "5.81 mm and 7.35 mm and 5.72 mm and 8.04 mm and 7.15 mm and 7.08 mm"}, {"measurement": "Tumor Length", "setting": "[1]; Day 14, 5 mg/kg", "value": "8.23 mm and 8.98 mm and 8.47 mm and 7.26 mm and 9.3 mm and 9.49 mm"}, {"measurement": "Tumor Volume", "setting": "[1]; Day 14, 5 mg/kg", "value": "222.04 mm^3 and 307.58 mm^3 and 251.33 mm^3 and 190.45 mm^3 and 320.90 mm^3 and 371.60 mm^3"}, {"measurement": "Tumor Width", "setting": "[1]; Day 14, 5 mg/kg", "value": "7.18 mm and 8.09 mm and 7.53 mm and 7.08 mm and 8.12 mm and 8.65 mm"}, {"measurement": "Tumor Length", "setting": "[1]; Day 18, 5 mg/kg", "value": "8.68 mm and 10.39 mm and 9.13 mm and 9.05 mm and 9.45 mm and 9.95 mm"}, {"measurement": "Tumor Volume", "setting": "[1]; Day 18, 5 mg/kg", "value": "324.35 mm^3 and 536.16 mm^3 and 383.59 mm^3 and 344.61 mm^3 and 334.97 mm^3 and 363.06 mm^3"}, {"measurement": "Tumor Width", "setting": "[1]; Day 18, 5 mg/kg", "value": "8.45 mm and 9.93 mm and 8.96 mm and 8.53 mm and 8.23 mm and 8.35 mm"}, {"measurement": "Tumor Length", "setting": "[1]; Day 21, 5 mg/kg", "value": "10.54 mm and 10.95 mm and 9.73 mm and 10.89 mm and 10.09 mm and 10.17 mm"}, {"measurement": "Tumor Volume", "setting": "[1]; Day 21, 5 mg/kg", "value": "450.77 mm^3 and 632.99 mm^3 and 424.46 mm^3 and 505.72 mm^3 and 463.61 mm^3 and 487.44 mm^3"}, {"measurement": "Tumor Width", "setting": "[1]; Day 21, 5 mg/kg", "value": "9.04 mm and 10.51 mm and 9.13 mm and 9.42 mm and 9.37 mm and 9.57 mm"}, {"measurement": "Tumor Length", "setting": "[1]; Day 25, 5 mg/kg", "value": "12.37 mm and 11.71 mm and 10.99 mm and 12.36 mm and 12.63 mm"}, {"measurement": "Tumor Volume", "setting": "[1]; Day 25, 5 mg/kg", "value": "724.64 mm^3 and 746.92 mm^3 and 567.12 mm^3 and 525.64 mm^3 and 639.10 mm^3 and 698.50 mm^3"}, {"measurement": "Tumor Width", "setting": "[1]; Day 25, 5 mg/kg", "value": "10.58 mm and 11.04 mm and 9.93 mm and 9.56 mm and 9.94 mm and 10.28 mm"}, {"measurement": "Tumor Length", "setting": "[1]; Day 28, 5 mg/kg", "value": "11.25 mm and 11.92 mm and 12.46 mm and 12.52 mm and 12.24 mm and 12.94 mm"}, {"measurement": "Tumor Volume", "setting": "[1]; Day 28, 5 mg/kg", "value": "728.02 mm^3 and 719.55 mm^3 and 840.02 mm^3 and 932.53 mm^3 and 835.40 mm^3 and 919.10 mm^3"}, {"measurement": "Tumor Width", "setting": "[1]; Day 28, 5 mg/kg", "value": "11.12 mm and 10.74 mm and 11.35 mm and 11.93 mm and 11.42 mm and 11.65 mm"}, {"measurement": "Tumor weight after 28 days", "setting": "[1]; IgG4 (5 mg/kg), Ex. 2, per mouse 1-6, 5 mg/kg", "value": "0.779 grams and 0.769 grams and 0.739 grams and 0.863 grams and 0.852 grams and 0.649 grams"}, {"measurement": "tumor suppression rate", "setting": "[1]; single anti-CD14-IgG4 5 mg/kg (Ex. 2), after 28 days", "value": "about 25%"}]}
{"molecule": "B2", "values": [{"measurement": "Koff", "setting": "[2]", "value": 0.0026, "unit": "s⁻¹"}, {"measurement": "kon (1:1 binding)", "setting": "[2]", "value": "1.29e+06", "unit": "M⁻¹ s⁻¹"}, {"measurement": "affinity compared with the humanized antibody D6DD3D014", "setting": "[2]; Biacore, B294801 antigen", "value": "approximately equivalent to the affinity of the humanized antibody D6DD3D014"}, {"measurement": "affinity compared with the murine antibody D6DD3D001", "setting": "[2]; Biacore, B294801 antigen", "value": "within three times less than the affinity of the murine antibody D6DD3D001"}]}
{"molecule": "B3", "values": [{"measurement": "Koff", "setting": "[2]", "value": 0.0046, "unit": "s⁻¹"}, {"measurement": "kon (1:1 binding)", "setting": "[2]", "value": 775000, "unit": "M⁻¹ s⁻¹"}]}
{"molecule": "B4", "values": [{"measurement": "Koff", "setting": "[2]", "value": 0.00544, "unit": "s⁻¹"}, {"measurement": "kon (1:1 binding)", "setting": "[2]", "value": "1.11e+06", "unit": "M⁻¹ s⁻¹"}]}
{"molecule": "B5", "values": [{"measurement": "Koff", "setting": "[2]", "value": 0.00633, "unit": "s⁻¹"}, {"measurement": "kon (1:1 binding)", "setting": "[2]", "value": 847000, "unit": "M⁻¹ s⁻¹"}]}
{"molecule": "B6", "values": [{"measurement": "Koff", "setting": "[2]", "value": 0.00362, "unit": "s⁻¹"}, {"measurement": "kon (1:1 binding)", "setting": "[2]", "value": "1.29e+06", "unit": "M⁻¹ s⁻¹"}]}
